# Data reported in paper PMC2234237 (The Journal of Cell Biology, 2008).
# T1: Pih1/Nop17, full length, untagged, recombinant (monomeric species) (S. cerevisiae, UniProt P38768 1-344)
# T1 sequence: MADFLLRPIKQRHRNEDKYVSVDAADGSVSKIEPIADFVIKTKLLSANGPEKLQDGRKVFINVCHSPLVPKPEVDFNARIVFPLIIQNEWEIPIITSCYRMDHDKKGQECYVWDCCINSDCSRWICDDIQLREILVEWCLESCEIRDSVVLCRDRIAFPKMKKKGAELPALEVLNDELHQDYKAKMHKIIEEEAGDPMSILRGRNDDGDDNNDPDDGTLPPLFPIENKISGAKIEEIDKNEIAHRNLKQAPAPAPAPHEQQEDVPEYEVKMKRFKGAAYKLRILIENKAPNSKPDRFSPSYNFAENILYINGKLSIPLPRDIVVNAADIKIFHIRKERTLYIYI
# Assays:
# [1] = biological target: Hsp82-MC (residues 260-709) (S. cerevisiae, UniProt P02829 260-709); assay: pull-down
# [2] = biological target: T1, Pih1/Nop17, full length, untagged, …; assay: pull-down
# Rvb2, recombinant = Rvb2, recombinant (S. cerevisiae, UniProt Q12464 1-471); assay: SEC
# Rvb2, recombinant, sequence (Q12464 whole entry): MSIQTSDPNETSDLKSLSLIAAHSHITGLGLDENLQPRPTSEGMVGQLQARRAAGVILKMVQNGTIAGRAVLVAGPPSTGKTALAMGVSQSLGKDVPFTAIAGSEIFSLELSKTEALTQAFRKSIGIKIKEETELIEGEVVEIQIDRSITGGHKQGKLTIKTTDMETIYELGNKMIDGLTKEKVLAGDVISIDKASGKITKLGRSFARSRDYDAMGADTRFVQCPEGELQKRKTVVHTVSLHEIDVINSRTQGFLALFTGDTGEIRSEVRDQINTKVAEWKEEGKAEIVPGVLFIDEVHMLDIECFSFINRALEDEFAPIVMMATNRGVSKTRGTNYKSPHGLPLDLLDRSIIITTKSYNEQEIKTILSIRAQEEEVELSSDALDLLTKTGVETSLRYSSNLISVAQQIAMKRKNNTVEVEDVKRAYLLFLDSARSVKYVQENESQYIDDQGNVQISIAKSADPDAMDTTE
# Hsp82-MC (residues 260-709), sequence (P02829 260-709): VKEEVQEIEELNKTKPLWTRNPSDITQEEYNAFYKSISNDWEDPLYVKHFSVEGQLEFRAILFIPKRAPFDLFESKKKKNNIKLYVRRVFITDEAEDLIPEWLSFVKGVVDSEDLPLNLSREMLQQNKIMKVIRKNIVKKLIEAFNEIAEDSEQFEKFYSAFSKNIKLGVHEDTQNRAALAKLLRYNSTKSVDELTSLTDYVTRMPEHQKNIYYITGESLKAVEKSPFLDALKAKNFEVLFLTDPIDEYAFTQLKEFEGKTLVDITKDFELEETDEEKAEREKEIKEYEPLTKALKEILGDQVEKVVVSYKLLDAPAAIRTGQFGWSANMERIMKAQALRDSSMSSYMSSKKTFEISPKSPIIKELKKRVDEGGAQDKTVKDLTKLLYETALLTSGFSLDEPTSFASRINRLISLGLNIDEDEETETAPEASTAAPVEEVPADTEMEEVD
Binder,binding result [1],binding result [2],"binding result (Rvb2, recombinant)"
"Tah1, full length, recombinant (natural protein) MSQFEKQKEQGNSLFKQGLYREAVHCYDQLITAQPQNPVGYSNKAMALIKLGEYTQAIQMCQQGLRYTSTAEHVAIRSKLQYRLELAQGAVGSVQIPVVEVDELPEGYDRS",binds,binds,–
Sti1 TPR2a domain (residues 260-386) (domain or fragment) IEADKEKAEGNKFYKARQFDEAIEHYNKAWELHKDITYLNNRAAAEYEKGEYETAISTLNDAVEQGREMRADYKVISKSFARIGNAYHKLGDLKKTIEYYQKSLTEHRTADILTKLRNAEKELKKAE,binds,–,–
"Rvb1, recombinant (natural protein) MVAISEVKENPGVNSSNSGAVTRTAAHTHIKGLGLDESGVAKRVEGGFVGQIEAREACGVIVDLIKAKKMSGRAILLAGGPSTGKTALALAISQELGPKVPFCPLVGSELYSVEVKKTETLMENFRRAIGLRIKETKEVYEGEVTELTPEDAENPLGGYGKTISHVIVGLKSAKGTKTLRLDPTIYESIQREKVSIGDVIYIEANTGAVKRVGRSDAYATEFDLETEEYVPLPKGEVHKKKEIVQDVTLHDLDVANARPQGGQDVISMMGQLLKPKKTEITEKLRQEVNKVVAKYIDQGVAELIPGVLFIDEVNMLDIEIFTYLNKALESNIAPVVVLASNRGMTTVRGTEDVISPHGVPPDLIDRLLIVRTLPYDKDEIRTIIERRATVERLQVESSALDLLATMGTETSLRYALQLLAPCGILAQTSNRKEIVVNDVNEAKLLFLDAKRSTKILETSANYL",–,–,binds
